# Measurements taken from patent publication US20130108548A1 (VECT HORUS, published 2013).
# Positions of bridges follow the written chain, without caps; N, C: chain ends. Non-standard residues stand in square brackets, D forms with d. No end group written: not given here.
# B1: peptide SEQ ID NO: 10 (peptide)
# peptide: [dC]MPRLR[dA]C
# modifications: disulfide 1-8 (inferred)
# notes: also called (D)-cys-Met-Pro-Arg-Leu-Arg-(D)-ala-Cys
# B2: peptide SEQ ID NO: 5 radiolabelled using tritium (peptide)
# peptide: XMXRLRGC
# modifications: (D)-pen at 1; Thz at 3; tritiated, by the method of Example IX a tritiated propionyl group on the N-term amine
# Tests used:
# [1] = target: rat LDLR on rat brain capillary endothelial cells (RBCEC) (rat) (UniProt P35952); assay: cell-based or functional assay
# [2] = target: T1, human low-density lipoprotein receptor fused with RFP, on CHO-hLDLR-RFP cells (human, UniProt P01130 22-860); assay: competition on CHO-hLDLR-RFP cells: 10 uM test peptide against 10 uM SEQ ID NO: 17/STag, STag read by FRET
# T1 construct: whole, on cells; also called human LDLR; not shown: red fluorescent protein (RFP) fused at the C-term (intracellular end)
# [3] = target: mouse LDLR in tissues of wild-type mice (mouse, UniProt P35951 22-862); assay: cell-based or functional assay
# mouse LDLR in tissues of wild-type mice, sequence (P35951 22-862): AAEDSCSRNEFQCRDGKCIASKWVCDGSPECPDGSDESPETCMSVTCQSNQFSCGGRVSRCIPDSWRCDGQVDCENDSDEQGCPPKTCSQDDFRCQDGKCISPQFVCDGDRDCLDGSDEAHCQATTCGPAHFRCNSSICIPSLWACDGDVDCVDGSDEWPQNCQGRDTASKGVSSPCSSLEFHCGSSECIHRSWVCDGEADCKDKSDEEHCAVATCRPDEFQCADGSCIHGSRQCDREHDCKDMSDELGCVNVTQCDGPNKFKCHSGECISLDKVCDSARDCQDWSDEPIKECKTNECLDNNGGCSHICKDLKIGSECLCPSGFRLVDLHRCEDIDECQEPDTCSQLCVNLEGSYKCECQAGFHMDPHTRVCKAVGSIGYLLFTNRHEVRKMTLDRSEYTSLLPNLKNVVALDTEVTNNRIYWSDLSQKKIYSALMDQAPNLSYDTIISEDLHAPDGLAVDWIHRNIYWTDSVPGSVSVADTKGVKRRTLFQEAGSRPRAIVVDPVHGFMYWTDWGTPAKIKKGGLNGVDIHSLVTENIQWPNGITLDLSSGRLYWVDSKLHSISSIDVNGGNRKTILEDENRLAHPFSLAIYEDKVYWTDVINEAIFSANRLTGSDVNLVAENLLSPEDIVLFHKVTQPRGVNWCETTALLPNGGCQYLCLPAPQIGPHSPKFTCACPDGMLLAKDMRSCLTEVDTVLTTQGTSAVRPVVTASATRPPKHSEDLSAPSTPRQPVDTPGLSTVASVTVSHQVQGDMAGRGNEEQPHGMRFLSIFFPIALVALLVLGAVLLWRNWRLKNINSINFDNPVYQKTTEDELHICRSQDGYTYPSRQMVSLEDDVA
# rat LDLR on rat brain capillary endothelial cells (RBCEC) (rat), sequence (P35952 22-879): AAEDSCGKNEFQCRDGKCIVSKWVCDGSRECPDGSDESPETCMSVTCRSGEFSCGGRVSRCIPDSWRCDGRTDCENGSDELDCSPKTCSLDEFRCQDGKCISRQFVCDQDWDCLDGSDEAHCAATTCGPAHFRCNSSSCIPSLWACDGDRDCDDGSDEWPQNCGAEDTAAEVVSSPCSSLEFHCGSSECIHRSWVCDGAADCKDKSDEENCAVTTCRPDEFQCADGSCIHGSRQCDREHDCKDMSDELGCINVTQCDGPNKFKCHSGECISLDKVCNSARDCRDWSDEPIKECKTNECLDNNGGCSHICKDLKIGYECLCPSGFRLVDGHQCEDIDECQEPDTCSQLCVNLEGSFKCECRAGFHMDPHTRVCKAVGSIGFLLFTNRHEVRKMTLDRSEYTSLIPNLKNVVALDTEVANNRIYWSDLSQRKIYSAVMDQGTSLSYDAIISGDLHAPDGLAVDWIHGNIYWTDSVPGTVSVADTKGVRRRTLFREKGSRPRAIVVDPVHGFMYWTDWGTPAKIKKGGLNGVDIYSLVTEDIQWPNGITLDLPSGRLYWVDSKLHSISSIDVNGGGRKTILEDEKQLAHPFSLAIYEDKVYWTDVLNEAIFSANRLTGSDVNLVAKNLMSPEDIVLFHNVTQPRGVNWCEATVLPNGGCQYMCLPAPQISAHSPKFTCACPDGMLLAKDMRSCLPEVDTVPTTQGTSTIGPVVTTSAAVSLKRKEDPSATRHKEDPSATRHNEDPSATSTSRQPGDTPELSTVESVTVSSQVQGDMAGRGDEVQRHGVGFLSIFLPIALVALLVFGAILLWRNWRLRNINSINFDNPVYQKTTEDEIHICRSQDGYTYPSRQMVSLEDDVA
molecule,measurement,setting,value
LDL made fluorescent by adsorption of DiI (ligand),saturation of the transport into the lower compartment of the in-vitro BBB model (WT) (µg per insert),[1],4
B1,Displacement of the control peptide,[2],54%
B2,"peptide concentration in the adrenal glands, LDLR-KO mice compared to wild-type mice, 10 min after intravenous injection",[3],~2 fold decrease
same,"peptide concentration in the intestine, LDLR-KO mice compared to wild-type mice, 10 min after intravenous injection",[3],~6 fold decrease
same,"peptide concentration in the liver, LDLR-KO mice compared to wild-type mice, 10 min after intravenous injection",[3],~5 fold decrease
